In patent US7718385B2, “Bioactivation of alkylating agents for cancer treatment” (priority 2003, dated 2010) one finds Km and Vmax data, which are given here for one protein.

Substrate in this data set: CC1=C(CO)C2=C(C)C3(CC3)[C@@](C)(O)C(=O)C2=C1
The experiment in a line: purified protein, by the assay type. Particulars: other: formation of Product 8; 37.0 °C.

B1: recombinant rat AOR (Rattus norvegicus; Q160G/Q263G/Q264G/Q276G) (protein)
chain: MVQAKTWTLKKHFEGFPTDSNFELRTTELPPLNNGEVLLEALFLSVDPYMRVAAKKLKEGDSMMGEQVARVVESKNSAFPTGTIVVALLGWTSHSISDGNGLRKLPAEWPDKLPLSLALGTVGMPGLTAYFGLLDICGLKGGETVLVNAAAGAVGSVVGGIAKLKGCKVVGTAGSDEKVAYLKKLGFDVAFNYKTVKSLEEALRTASPDGYDCYFDNVGGEFSNTVILQMKTFGRIAICGAISQYNRTGPCPPGPSPEVIIYGGLRMEGFIVTRWGGEVRQKALTDLMNWVSEGKIRYHEYITEGFEKMPAAFMGMLKGDNLGKTIVKA
Take B1: the Km was found to be 145 µM and the maximum rate (Vmax) was found to be 0.275 µmol/min/mg.

One may read the Km as the substrate concentration at which the rate is half of its maximum. By Vmax is commonly meant the top rate of the reaction or transport when substrate is in excess.
